{"source": "paper PMC10917276", "about": "“A tick saliva serpin, IxsS17 inhibits host innate immune system proteases and enhances host colonization by Lyme disease agent” (PLOS Pathogens, 2024)", "molecules": {"B1": {"name": "C-terminal hexa-histidine tagged recombinant Ixodes scapularis serpin 17 (rIxsS17) (natural protein)", "chain": "DDISQDKWKLARANNYLGLNLLKQLPSNDKTNVFFSPFSVSTAMGMAYAGARGDTLEQLTLNFGYAADELNEGKVLALFKEQLQSTNDLPHDYTLNIANAAVAQEGYGILPEYTDALTSSFGAEYIEADFQKRGQEAIQKINAWVSNRTHGKVQSLFDEPPDFSTRLILLNAIYYKGTWLYEFDKTKTKPRSFYNGGVEKVQVPMMRLKSTLNHTYNAILNADLVDLPYVGNDFSMTIILPREKTGLASLKSVLTSQTLNLALQNMYPKDMKLKLPKFKLDTKYTLKPTLEAMGITKIFSADADLSGISGSRNLYVSDVLHKAVLEVNEEGSEAAAVTGFVIQLRTAAFVTPPPLPKVYVDHPFIFLIRNSRTNTIMFLGEINAL", "modifications": "glycosylated (sites not given)", "notes": "Ixodes scapularis tick saliva serpin 17 (IxsS17), GenBank EEC18973.1; Codon-optimised synthetic gene in pPICZαA; also called C-terminal-His-rIxsS17; C-terminal His-tagged rIsS17; source: Pichia pastoris X33, secreted into medium, purified (ammonium sulfate, Hi-Trap Chelating HP); not shown: His6, C-terminal, kept"}, "B2": {"name": "rat skin trypsin IV (enzyme, UniProt P12788 24-247, looked up)", "chain": "IVGGYTCPKHLVPYQVSLHDGISHQCGGSLISDQWVLSAAHCYKRKLQVRLGEHNIHVLEGGEQFIDAEKIIRHPEYNKDTLDNDIMLIKLKSPAVLNSQVSTVSLPRSCASTDAQCLVSGWGNTVSIGGKYPALLQCLEAPVLSASSCKKSYPGQITSNMFCLGFLEGGKDSCDGDSGGPVVCNGEIQGIVSWGSVCAMRGKPGVYTKVCNYLSWIQETMANN", "notes": "rat trypsin IV, in house expressed; construct not described; also called rat trypsin IV; source: in house expressed"}, "B3": {"name": "blood clotting factor Xa (enzyme)", "chain 1": "ANSFLEEMKKGHLERECMEETCSYEEAREVFEDSDKTNEFWNKYKDGDQCETSPCQNQGKCKDGLGEYTCTCLEGFEGKNCELFTRKLCSLDNGDCDQFCHEEQNSVVCSCARGYTLADNGKACIPTGPYPCGKQTLER", "chain 2": "IVGGQECKDGECPWQALLINEENEGFCGGTILSEFYILTAAHCLYQAKRFKVRVGDRNTEQEEGGEAVHEVEVVIKHNRFTKETYDFDIAVLRLKTPITFRMNVAPACLPERDWAESTLMTQKTGIVSGFGRTHEKGRQSTRLKMLEVPYVDRNSCKLSSSFIITQNMFCAGYDTKQEDACQGDSGGPHVTRFKDTYFVTGIVSWGEGCARKGKYGIYTKVTAFLKWIDRSMKTRGLPKAKSHAPEVITSSPLK"}}, "key": {"[1]": {"biological_target": "bovine pancreatic trypsin (bovine)"}, "[2]": {"biological_target": "bovine pancreatic trypsin (bovine)", "assay": "discontinuous inhibition kinetics from residual protease activity (second-order rate constant); rIxsS17 50-1000 nM with bovine trypsin 14.6 nM, trypsin IV 12.5 nM or fXa 13.9 nM for 0-15 min at 37°C; kobs from semi-log plots, ka from the slope of kobs against rIxsS17 concentration"}, "[3]": {"biological_target": "bovine pancreatic trypsin (bovine)", "assay": "stoichiometry of inhibition from residual protease activity (substrate hydrolysis); molar ratios of His-tagged rIxsS17 to protease 0, 2.5, 5, 10, 20, 25, 50; 15 min at 37°C; bovine trypsin 1.5 nM, rat trypsin IV 2.0 nM or factor Xa 13.9 nM; linear regression extrapolated to zero activity"}, "[4]": {"biological_target": "B3", "assay": "stoichiometry of inhibition from residual protease activity (substrate hydrolysis); molar ratios of His-tagged rIxsS17 to protease 0, 2.5, 5, 10, 20, 25, 50; 15 min at 37°C; bovine trypsin 1.5 nM, rat trypsin IV 2.0 nM or factor Xa 13.9 nM; linear regression extrapolated to zero activity", "conditions": "both partners purified"}, "[5]": {"biological_target": "B2", "assay": "stoichiometry of inhibition from residual protease activity (substrate hydrolysis); molar ratios of His-tagged rIxsS17 to protease 0, 2.5, 5, 10, 20, 25, 50; 15 min at 37°C; bovine trypsin 1.5 nM, rat trypsin IV 2.0 nM or factor Xa 13.9 nM; linear regression extrapolated to zero activity", "conditions": "both partners purified"}, "[6]": {"biological_target": "B1", "assay": "discontinuous inhibition kinetics from residual protease activity (second-order rate constant); rIxsS17 50-1000 nM with bovine trypsin 14.6 nM, trypsin IV 12.5 nM or fXa 13.9 nM for 0-15 min at 37°C; kobs from semi-log plots, ka from the slope of kobs against rIxsS17 concentration", "conditions": "both partners purified"}}, "data": [{"molecule": "N-terminal hexa-histidine tagged rIxsS17 with TEV site (natural protein)", "values": [{"measurement": "decrease in the inhibitory activity against trypsin of the N-terminal hexa-His construct (substrate hydrolysis assay)", "setting": "[1]", "result": 8.6, "unit": "%"}]}, {"molecule": "C-terminal hexa-histidine tagged recombinant Ixodes scapularis serpin 17 (rIxsS17) (from UniProt A0ACM8DKW3 71-455) (natural protein)", "values": [{"measurement": "kon", "setting": "[2]", "result": 2700, "unit": "M⁻¹ s⁻¹"}, {"measurement": "stoichiometry of inhibition (SI)", "setting": "[3]", "result": 12.9}]}, {"molecule": "B1", "values": [{"measurement": "stoichiometry of inhibition (SI)", "setting": "[4]", "result": 68}, {"measurement": "stoichiometry of inhibition (SI)", "setting": "[5]", "result": 10.5}]}, {"molecule": "B2", "values": [{"measurement": "kon", "setting": "[6]", "result": 3900, "unit": "M⁻¹ s⁻¹"}]}, {"molecule": "B3", "values": [{"measurement": "kon", "setting": "[6]", "result": 540, "unit": "M⁻¹ s⁻¹"}]}]}
